According to patent US20100047226A1 (published 2010):

Tests used:
Experiment in all cases: cell-based or functional assay
JAK3 (active form) = JAK3 (active form) (UniProt P52333 781-1124, limits assumed)
SGK (active form) = target: T1, SGK (active form) (UniProt O00141 60-431, limits assumed)
T1 sequence (looked up): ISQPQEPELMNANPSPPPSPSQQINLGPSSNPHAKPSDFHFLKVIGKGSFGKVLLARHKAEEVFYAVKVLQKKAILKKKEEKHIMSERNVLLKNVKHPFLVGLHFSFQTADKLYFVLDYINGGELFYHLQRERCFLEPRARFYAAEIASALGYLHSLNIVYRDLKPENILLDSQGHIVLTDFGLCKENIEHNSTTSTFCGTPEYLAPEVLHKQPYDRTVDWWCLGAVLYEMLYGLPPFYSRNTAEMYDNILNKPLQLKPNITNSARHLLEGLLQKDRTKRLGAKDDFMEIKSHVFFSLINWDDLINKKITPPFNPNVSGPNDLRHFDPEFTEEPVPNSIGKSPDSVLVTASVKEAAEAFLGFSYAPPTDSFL

AKT2 (active form) = AKT2 (active form) (UniProt P31751 120-481, limits assumed)
p70S6K (active form) = p70S6K (active form) (UniProt P23443 1-421)
PAK3 (active form) = PAK3 (active form) (UniProt O75914 1-559, limits assumed)
PI3K[…] (active form) = target: PI3K[…] (active form)
TrkB (active form) = TrkB (active form) (UniProt Q16620 526-822, limits assumed)
Abl (active form) = Abl (active form) (UniProt P00519 27-1130, limits assumed)
Abl (active form), sequence (P00519 27-1130 limits assumed): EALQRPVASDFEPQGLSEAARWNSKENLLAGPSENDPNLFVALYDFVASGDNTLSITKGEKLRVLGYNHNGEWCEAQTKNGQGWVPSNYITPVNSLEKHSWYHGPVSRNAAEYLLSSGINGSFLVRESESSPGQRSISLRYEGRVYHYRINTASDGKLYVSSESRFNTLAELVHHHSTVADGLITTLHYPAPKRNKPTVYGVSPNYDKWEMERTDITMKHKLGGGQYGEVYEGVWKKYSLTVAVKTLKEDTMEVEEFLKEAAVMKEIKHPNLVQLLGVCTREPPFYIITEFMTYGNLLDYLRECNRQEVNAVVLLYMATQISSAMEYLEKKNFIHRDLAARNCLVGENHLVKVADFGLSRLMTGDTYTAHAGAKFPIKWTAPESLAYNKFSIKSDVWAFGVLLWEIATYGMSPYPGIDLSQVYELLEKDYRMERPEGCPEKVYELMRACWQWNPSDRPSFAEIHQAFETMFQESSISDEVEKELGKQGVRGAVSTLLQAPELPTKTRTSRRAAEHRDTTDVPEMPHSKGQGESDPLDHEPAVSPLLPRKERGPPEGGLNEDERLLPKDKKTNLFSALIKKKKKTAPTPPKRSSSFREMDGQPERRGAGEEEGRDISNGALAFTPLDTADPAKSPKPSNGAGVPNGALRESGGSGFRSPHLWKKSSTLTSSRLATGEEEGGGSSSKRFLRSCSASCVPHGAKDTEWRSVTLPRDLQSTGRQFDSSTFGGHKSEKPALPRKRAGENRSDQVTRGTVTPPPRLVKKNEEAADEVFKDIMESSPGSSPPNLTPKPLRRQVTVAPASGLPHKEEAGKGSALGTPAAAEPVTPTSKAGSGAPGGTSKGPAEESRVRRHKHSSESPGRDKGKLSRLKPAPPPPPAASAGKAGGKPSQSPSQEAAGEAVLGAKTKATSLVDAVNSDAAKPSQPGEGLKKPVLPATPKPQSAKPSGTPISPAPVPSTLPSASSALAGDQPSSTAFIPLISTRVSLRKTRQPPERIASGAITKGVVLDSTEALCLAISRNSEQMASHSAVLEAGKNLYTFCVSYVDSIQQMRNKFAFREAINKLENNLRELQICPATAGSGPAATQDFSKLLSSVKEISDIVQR

p70S6K (active form), sequence (P23443 1-421): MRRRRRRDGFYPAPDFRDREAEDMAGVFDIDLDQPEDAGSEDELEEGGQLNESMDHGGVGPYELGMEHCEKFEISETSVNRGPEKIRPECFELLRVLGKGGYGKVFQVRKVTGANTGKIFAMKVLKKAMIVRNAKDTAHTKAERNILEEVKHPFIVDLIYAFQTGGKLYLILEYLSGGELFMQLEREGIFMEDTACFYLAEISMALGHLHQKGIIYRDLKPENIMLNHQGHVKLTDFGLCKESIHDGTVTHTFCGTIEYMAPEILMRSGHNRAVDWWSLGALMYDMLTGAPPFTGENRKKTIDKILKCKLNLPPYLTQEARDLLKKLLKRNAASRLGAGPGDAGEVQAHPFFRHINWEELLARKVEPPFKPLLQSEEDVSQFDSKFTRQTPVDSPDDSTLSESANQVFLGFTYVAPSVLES
AKT2 (active form), sequence (P31751 120-481 limits assumed): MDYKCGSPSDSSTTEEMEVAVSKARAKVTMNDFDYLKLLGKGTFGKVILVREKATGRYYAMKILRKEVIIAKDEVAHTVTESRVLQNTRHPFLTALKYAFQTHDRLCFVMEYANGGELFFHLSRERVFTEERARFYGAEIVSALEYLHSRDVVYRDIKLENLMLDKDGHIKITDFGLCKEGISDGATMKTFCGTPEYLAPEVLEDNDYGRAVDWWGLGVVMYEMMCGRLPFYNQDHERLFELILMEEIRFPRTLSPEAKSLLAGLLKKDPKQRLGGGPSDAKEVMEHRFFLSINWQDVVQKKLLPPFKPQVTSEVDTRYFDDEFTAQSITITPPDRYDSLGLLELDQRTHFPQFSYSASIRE
JAK3 (active form), sequence (P52333 781-1124 limits assumed): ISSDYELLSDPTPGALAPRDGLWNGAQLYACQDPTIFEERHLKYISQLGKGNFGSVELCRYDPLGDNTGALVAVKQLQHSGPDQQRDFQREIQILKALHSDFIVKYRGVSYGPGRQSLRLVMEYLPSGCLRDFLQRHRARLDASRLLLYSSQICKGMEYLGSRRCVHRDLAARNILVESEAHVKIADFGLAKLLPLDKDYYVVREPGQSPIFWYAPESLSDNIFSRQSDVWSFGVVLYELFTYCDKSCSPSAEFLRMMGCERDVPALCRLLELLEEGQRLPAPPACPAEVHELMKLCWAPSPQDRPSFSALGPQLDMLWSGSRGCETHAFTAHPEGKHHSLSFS
TrkB (active form), sequence (Q16620 526-822 limits assumed): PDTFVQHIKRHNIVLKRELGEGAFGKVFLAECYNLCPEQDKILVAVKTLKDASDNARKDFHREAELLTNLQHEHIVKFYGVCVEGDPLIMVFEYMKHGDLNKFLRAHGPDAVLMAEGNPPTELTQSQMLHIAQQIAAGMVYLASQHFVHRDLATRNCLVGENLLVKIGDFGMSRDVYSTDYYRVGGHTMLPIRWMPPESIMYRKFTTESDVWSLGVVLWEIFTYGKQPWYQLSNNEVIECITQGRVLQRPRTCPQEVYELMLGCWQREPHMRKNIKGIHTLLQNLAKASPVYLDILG
PAK3 (active form), sequence (O75914 whole entry): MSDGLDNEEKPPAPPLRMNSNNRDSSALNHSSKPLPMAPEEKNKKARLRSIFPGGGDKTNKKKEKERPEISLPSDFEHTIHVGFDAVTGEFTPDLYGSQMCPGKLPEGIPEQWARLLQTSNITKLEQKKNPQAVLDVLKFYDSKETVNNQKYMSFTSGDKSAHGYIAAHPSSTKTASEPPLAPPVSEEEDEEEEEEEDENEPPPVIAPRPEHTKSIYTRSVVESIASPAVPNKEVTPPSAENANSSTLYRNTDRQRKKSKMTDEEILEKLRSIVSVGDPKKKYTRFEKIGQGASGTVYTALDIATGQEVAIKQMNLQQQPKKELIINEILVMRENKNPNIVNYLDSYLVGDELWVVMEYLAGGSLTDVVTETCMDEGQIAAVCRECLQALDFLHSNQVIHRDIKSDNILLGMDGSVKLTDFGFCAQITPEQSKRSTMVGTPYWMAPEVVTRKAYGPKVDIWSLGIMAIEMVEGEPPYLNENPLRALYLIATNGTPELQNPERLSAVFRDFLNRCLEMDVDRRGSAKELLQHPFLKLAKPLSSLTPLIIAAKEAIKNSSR

AKRVKGRTWTLCGTPEY [ZaTa peptide (PKAc fragment flanking Thr-197)]
in vitro kinase assay at ten times the IC50 for AKT1 (JAK3 (active form)): 79%
in vitro kinase assay at ten times the IC50 for AKT1 (SGK (active form)): 73%
in vitro kinase assay at ten times the IC50 for AKT1 (AKT2 (active form)): 63%
in vitro kinase assay at ten times the IC50 for AKT1 (p70S6K (active form)): 64%
in vitro kinase assay at ten times the IC50 for AKT1 (PAK3 (active form)): 83%
in vitro kinase assay at ten times the IC50 for AKT1 (PI3K[…] (active form)): 72%
in vitro kinase assay at ten times the IC50 for AKT1 (TrkB (active form)): 84%
in vitro kinase assay at ten times the IC50 for AKT1 (Abl (active form)): 42%
